Patent publication US20190300590A1 (PROTAGONIST THERAPEUTICS, published 2019)
Read-outs that look alike come from different tables or passages of the source. Bridges are numbered along the chain shown (N, C = ends). [ ]: non-standard residue; d: D form. 2Nal = N[C@@H](Cc1ccc2ccccc2c1)C(=O)O; AEF = NCCOc1ccc(C[C@H](N)C(=O)O)cc1; Pen = CC(C)(S)[C@H](N)C(=O)O; hLeu = CC(C)CC[C@H](N)C(=O)O; αMeK = C[C@](N)(CCCCN)C(=O)O

T1: IL23R_huFC (human, UniProt Q5VWK5 24-353)
T1 sequence (looked up): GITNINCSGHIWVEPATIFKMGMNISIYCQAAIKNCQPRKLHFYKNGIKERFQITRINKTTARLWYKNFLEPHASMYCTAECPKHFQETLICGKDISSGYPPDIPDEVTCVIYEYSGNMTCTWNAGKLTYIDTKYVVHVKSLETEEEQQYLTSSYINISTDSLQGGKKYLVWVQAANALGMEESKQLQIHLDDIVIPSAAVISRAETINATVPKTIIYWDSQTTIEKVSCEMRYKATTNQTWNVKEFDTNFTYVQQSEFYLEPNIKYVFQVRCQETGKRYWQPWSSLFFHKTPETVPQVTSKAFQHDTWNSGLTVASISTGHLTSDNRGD

T2: Rat IL-23R_huFC (rat, UniProt F1LX96 39-369)
T2 sequence: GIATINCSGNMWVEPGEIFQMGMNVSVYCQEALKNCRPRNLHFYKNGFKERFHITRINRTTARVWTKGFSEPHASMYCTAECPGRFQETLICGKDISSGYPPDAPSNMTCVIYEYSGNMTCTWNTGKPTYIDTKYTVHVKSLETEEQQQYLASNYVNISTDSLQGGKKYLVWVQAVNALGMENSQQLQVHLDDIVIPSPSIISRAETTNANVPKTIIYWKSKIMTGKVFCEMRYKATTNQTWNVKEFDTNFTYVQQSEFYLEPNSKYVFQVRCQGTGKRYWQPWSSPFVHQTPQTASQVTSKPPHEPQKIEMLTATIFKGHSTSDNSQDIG

T3: IL-23R on DB cells (human, UniProt Q5VWK5 24-629)
T3 sequence (looked up): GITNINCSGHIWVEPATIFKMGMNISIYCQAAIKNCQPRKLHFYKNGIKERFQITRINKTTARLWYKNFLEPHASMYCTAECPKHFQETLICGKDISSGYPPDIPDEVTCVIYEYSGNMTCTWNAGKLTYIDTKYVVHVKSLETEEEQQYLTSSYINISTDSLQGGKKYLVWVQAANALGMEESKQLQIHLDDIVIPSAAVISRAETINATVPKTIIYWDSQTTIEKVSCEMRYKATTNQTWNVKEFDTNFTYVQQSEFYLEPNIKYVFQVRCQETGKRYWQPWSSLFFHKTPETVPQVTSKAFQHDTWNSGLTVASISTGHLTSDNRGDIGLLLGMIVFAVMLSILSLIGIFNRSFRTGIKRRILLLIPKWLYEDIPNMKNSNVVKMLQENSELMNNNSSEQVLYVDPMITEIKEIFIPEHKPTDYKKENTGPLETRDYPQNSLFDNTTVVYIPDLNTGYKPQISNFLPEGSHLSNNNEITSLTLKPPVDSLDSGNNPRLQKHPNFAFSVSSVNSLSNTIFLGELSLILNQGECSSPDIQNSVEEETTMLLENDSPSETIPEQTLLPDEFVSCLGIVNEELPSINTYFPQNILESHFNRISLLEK


Columns and labels:
IL23R_huFC = target: T1, IL23R_huFC; assay: IL23-IL23R competitive binding ELISA
Rat IL-23R_huFC [1] = target: T2, Rat IL-23R_huFC; assay: rat IL-23R competitive binding ELISA
IL-23R on DB cells = target: T3, IL-23R on DB cells; assay: cell-based or functional assay
Rat IL-23R_huFC [2] = target: T2, Rat IL-23R_huFC; assay: rat IL-23R competitive binding ELISA; remark: listed apart in the source

Binder | IC50 (IL23R_huFC) [nM] | IC50 (Rat IL-23R_huFC [1]) [nM] | pStat3 HTRF IC50 (IL-23R on DB cells) [nM] | IC50 (Rat IL-23R_huFC [2]) [nM]
XQTWQXFXKKNG (N-terminal gallic acid; Pen-Pen disulfide; Phe(4-OMe); 2-Nal; α-MeLys; Lys(Ac); NH2) [gallic acid-[Pen]-QTWQ[Pen]-[Phe(4-OMe)]-[2-Nal]-[α-MeLys]-[Lys(Ac)]-NG-NH2] | 1000 to 10000 | – | – | –
XQTWQXYWLENG (Ac; Pen-Pen disulfide; hLeu; NH2) [Ac-[Pen]-QTWQ-[Pen]-YW-[hLeu]-ENG-NH2] | 100 to 1000 | – | – | –
EXQTWQXFXKKNG (N-terminal pyroglutamic acid; Pen-Pen disulfide; Phe(4-OMe); 2-Nal; α-MeLys; Lys(Ac); NH2) [pyroglutamic acid-[Pen]-QTWQ[Pen]-[Phe(4-OMe)]-[2-Nal]-[α-MeLys]-[Lys(Ac)]-NG-NH2] | 25 to 100 | 25 to 100 | < 10 | –
XQTWQXYWLENG (Ac; Pen-Pen disulfide; α-MeLeu; NH2) [Ac-[Pen]-QTWQ-[Pen]-Y-[α-MeLeu]-ENG-NH2] | 25 to 100 | 100 to 1000 | 10 to 25 | –
XQTWQXYXKENG (Ac; Pen-Pen disulfide; 2-Nal; α-MeLys; NH2) [Ac-[Pen]-QTWQ-[Pen]-Y-[2-Nal]-[α-MeLys]-ENG-NH2] | 25 to 100 | 100 to 1000 | < 10 | –
XQTWQXFXLQNN (Ac; Pen-Pen disulfide; Phe[4-(2-acetylaminoethoxy)]; 2-Nal; α-MeLeu; NH2) [Ac-[Pen]-QTWQ-[Pen]-[Phe[4-(2-acetylaminoethoxy)]-[2-Nal]-[α-MeLeu]-QNN-NH2] | < 10 | – | < 10 | –
XQTWQXFXKENG (Ac; Pen-Pen disulfide; Phe(4-OMe); 2-Nal; α-MeLys; NH2) [Ac-[Pen]-QTWQ-[Pen]-[Phe(4-OMe)]-[2-Nal]-[α-MeLys]-ENG-NH2] | 25 to 100 | 100 to 1000 | – | –
XQTWQXFXKENA (Ac; Pen-Pen disulfide; Phe[4-(2-aminoethoxy)]; 2-Nal; α-MeLys; NH2) [Ac-[Pen]-QTWQ-[Pen]-[Phe[4-(2-aminoethoxy)]-[2-Nal]-[α-MeLys]-ENA-NH2] | < 10 | 25 to 100 | < 10 | –
XQTWQXFXKENA (Ac; Pen-Pen disulfide; Phe[4-(2-acetylaminoethoxy)]; 2-Nal; α-MeLys(Ac); NH2) [Ac-[Pen]-QTWQ-[Pen]-[Phe[4-(2-acetylaminoethoxy)]-[2-Nal]-[α-MeLys(Ac)]-ENA-NH2] | 10 to 25 | – | < 10 | –
XQTWQXFXLKNN (Ac; Pen-Pen disulfide; Phe[4-(2-acetylaminoethoxy)]; 2-Nal; α-MeLeu; Lys(Ac); NH2) [Ac-[Pen]-QTWQ-[Pen]-[Phe[4-(2-acetylaminoethoxy)]-[2-Nal]-[α-MeLeu]-[Lys(Ac)]-NN-NH2] | < 10 | – | < 10 | –
Ac-[Pen]STWQ[Pen][AEF][2Nal][αMeK]ENG-NH2 (disulfide 1-6 (inferred)) [Ac-[Pen]-STWQ-[Pen]-[Phe[4-(2-aminoethoxy)]-[2-Nal]-[α-MeLys]-ENG-NH2] | 10 to 25 | – | < 10 | –
XQTWQXFXLKNN (Ac; Pen-Pen disulfide; Phe[4-(2-aminoethoxy)]; 2-Nal; α-MeLeu; Lys(Ac); NH2) [Ac-[Pen]-QTWQ-[Pen]-[Phe[4-(2-aminoethoxy)]-[2-Nal]-[α-MeLeu]-[Lys(Ac)]-NN-NH2] | < 10 | < 10 | < 10 | –
Ac-[Pen]TTWQ[Pen][AEF][2Nal][αMeK]ENG-NH2 (disulfide 1-6 (inferred)) [Ac-[Pen]-TTWQ-[Pen]-[Phe[4-(2-aminoethoxy)]-[2-Nal]-[α-MeLys]-ENG-NH2] | 10 to 25 | – | < 10 | –
XQTWQXFXLQNN (Ac; Pen-Pen disulfide; Phe[4-(2-aminoethoxy)]; 2-Nal; α-MeLeu; NH2) [Ac-[Pen]-QTWQ-[Pen]-[Phe[4-(2-aminoethoxy)]-[2-Nal]-[α-MeLeu]-QNN-NH2] | < 10 | < 10 | < 10 | –
XQTWQXYWKKNG (Ac; Pen-Pen disulfide; α-MeLys; Lys(Ac); NH2) [Ac-[Pen]-QTWQ-[Pen]-YW-[α-MeLys]-[Lys(Ac)]-NG-NH2] | 100 to 1000 | – | – | –
XQTWQXYWXENG (Ac; Pen-Pen disulfide; α-MeOrn; NH2) [Ac-[Pen]-QTWQ-[Pen]-YW-[α-MeOrn]-ENG-NH2] | 100 to 1000 | 100 to 1000 | – | –
Ac-CQTWQCYW[hLeu]EPG-NH2 (not fully specified (bridges); cysteine pairing not given here) [Ac-CQTWQCYW-[hLeu]-EPG-NH2] | – | – | – | 140
Ac-CQTWQCYW[hLeu]K(Ac)NG-NH2 (cysteine pairing not given here) [Ac-CQTWQCYW-[hLeu]-[Lys(Ac)]-NG-NH2] | – | – | – | 32
XQTWQXYWLENG (Ac; Pen-Pen disulfide; hLeu; NH2) [Ac-[[Pen]-QTWQ-[Pen]-YW-[hLeu]-ENG-NH2] | 100 to 1000 | – | – | –
Ac-[Pen]QTWQ[Pen]YW[dN]ENG-NH2 (disulfide 1-6; SMILES CC(=O)N[C@@H]1C(=O)N[C@@H](CCC(N)=O)C(=O)N[C@@H]([C@@H](C)O)C(=O)N[C@@H](Cc2c[nH]c3ccccc23)C(=O)N[C@@H](CCC(N)=O)C(=O)N[C@H](C(=O)N[C@@H](Cc2ccc(O)cc2)C(=O)N[C@@H](Cc2c[nH]c3ccccc23)C(=O)N[C@H](CC(N)=O)C(=O)N[C@@H](CCC(=O)O)C(=O)N[C@@H](CC(N)=O)C(=O)NCC(N)=O)C(C)(C)SSC1(C)C) [Ac-[Pen]-QTWQ-[Pen]-YW-[(D)Asn]-ENG-NH2] | 1000 to 10000 | – | – | –
